Starred links: 1 amine or outer side, 2 acyl side, 3 side chain; linkers in the order of their positions; H or OH if unused. Positions of bridges follow the written chain, without caps; N, C: chain ends. Non-standard residues stand in square brackets, D forms with d. *: point of attachment. FITC = O=C1OC2(c3ccc(O)cc3Oc3cc(O)ccc32)c2ccc(NC(=S)*)cc21; S7 = C[C@@](CCCCCC=[*:3])(N[*:1])C(=O)[*:2]; R8 = C=CCCCCCC[C@@](C)(N)C(=O)O; Cba = N[C@@H](CC1CCC1)C(=O)O; S5 = C=CCCC[C@](C)(N)C(=O)O; Ahx = NCCCCCC(=O)O
The binders below were run against T1, MDM2 (1–138) (UniProt Q00987 1-138) (assay: fluorescence polarisation; direct binding; 10 nM FITC-labelled peptide incubated with varying concentrations of protein (10 μM to 9 pM), FP read after 3 h; n = 3). Conditions: both partners purified.
T1 construct: MDM2, residues 1-138; the methods may stand in the ESI; also called Mouse double minute 2 homolog
T1 sequence (Q00987 1-138): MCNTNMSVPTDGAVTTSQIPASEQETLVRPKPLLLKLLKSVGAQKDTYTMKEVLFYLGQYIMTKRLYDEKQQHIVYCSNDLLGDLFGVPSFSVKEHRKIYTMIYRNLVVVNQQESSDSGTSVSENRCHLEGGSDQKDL

| Kd [nM] | Binder |
| --- | --- |
| 1.39 ± 0.08 | {FITC-Ahx}-LTF[S7]EYWAQ[Cba][S7]SAA-NH2 (bridge 4-11; not fully specified (bridges)) [4FITC] |
| 3680 ± 151 | {FITC-Ahx}-LTA[S7]EYWAQ[Cba][S7]SAA-NH2 (staple 4-11) [5FITC] |

These binders were tested against T2, MDMX (1–134) (UniProt O15151 1-134) in the same assay as above. Conditions: both partners purified.
T2 construct: MDMX, residues 1-134; the methods may stand in the ESI; also called Mouse double minute X homolog
T2 sequence (looked up): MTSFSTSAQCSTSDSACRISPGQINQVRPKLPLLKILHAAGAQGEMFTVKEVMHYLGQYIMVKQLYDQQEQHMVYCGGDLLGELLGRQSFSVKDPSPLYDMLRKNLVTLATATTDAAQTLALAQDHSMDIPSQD

| Kd [nM] | Binder |
| --- | --- |
| 203 ± 54 | {FITC-Ahx}-LTF[S7]EYWAQ[Cba][S7]SAA-NH2 (bridge 4-11; not fully specified (bridges)) [4FITC] |
| 1120 ± 252 | {FITC-Ahx}-LTA[S7]EYWAQ[Cba][S7]SAA-NH2 (staple 4-11) [5FITC] |
| 8.42 ± 0.09 | {FITC-Ahx}-LTF[R8]EYWAQ[Cba][S5]SAA-NH2 (staple 4-11; also: cis alkene isomer) [cis-2FITC (ATSP-7041)] |
| 7.86 ± 0.15 | {FITC-Ahx}-LTF[R8]EYWAQ[Cba][S5]SAA-NH2 (staple 4-11; also: trans alkene isomer) [trans-3FITC (ATSP-7041)] |
